Series [1] concerns the target T1, MAGE-A3 peptide 111-125 (unmodified) (UniProt P43357).
T1 chain: RKVAELVHFLLLKYR
Nature of the series: ITC; 25 C, DPBS with 0.45% glucose, 5 mM MgCl2; dH -41 kcal/mol. Particulars: protein: synthetic; tags: none; peptide (synthetic, inferred). The method, then: (§1) Thermodynamic profile of the interaction between DNA and peptide was measured with a MicroCal iTC₂₀₀ (GE Healthcare Life Sciences) at 25° C. in washing buffer (0.45% glucose, 5 mM MgCl₂, in Dulbecco's Phosphate-Buffered Saline). The unmodified MAGE-A3₁₁₁₋₁₂₅ peptide (0.3 mM, 200 μl) was titrated with 18 successive injections of 2 μl aptamer (0.1 mM) at 150 s intervals. The data were analyzed using MicroCal Origin 7 and fit with a one-set-of sites binding model to obtain values of enthalpy change (AH) and association constant (Kₐ).
(ITC needs no label: the signal is the heat of the interaction.)

A further series deals with T2, NY-ESO-1 peptide 87-111 (UniProt P78358 P78358:87-111).
T2 chain: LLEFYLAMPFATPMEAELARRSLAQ
In words: pulldown; specificity control peptide. Particulars: protein: synthetic; tags: peptide (synthetic, inferred), streptavidin beads.

For a further series, the target named is NY-ESO-1 peptide 119-143 (UniProt P78358 P78358:119-143). Nature of the series: pulldown; specificity control peptide. Particulars: protein: synthetic; tags: peptide (synthetic, inferred), streptavidin beads.
For a further series, the target named is T3, NY-ESO-1 peptide 157-170 (UniProt P78358 P78358:157-170).
T3 chain: SLLMWITQCFLPVF
In words: pulldown; specificity control peptide. Particulars: protein: synthetic; tags: peptide (synthetic, inferred), streptavidin beads.

Series [2] concerns the target T1, MAGE-A3 peptide 111-125 (unmodified). In words: ITC; 25 C, DPBS with 0.45% glucose, 5 mM MgCl2; dH -24 kcal/mol. As to conditions: protein: synthetic; tags: none; peptide (synthetic, inferred). The method, then: as §1

As usually defined, the Kd is the free concentration of one partner at which half of the binding sites on the other are occupied at equilibrium, for simple one-to-one binding. A high value points to a looser complex.

As to AGCACTCAATATTCCC (ssDNA) [Ap16], the Kd in series [1] turned out to be 95 nM.

B1: Ap52 (ssDNA)
DNA: ATCCAGAGTGACGCAGCAAGCACTCAATATTCCCTGGACACGGTGGCTTAGT
On to B1, for which the binding result with NY-ESO-1 peptide 87-111, in the series with NY-ESO-1 peptide 119-143 and in the series with NY-ESO-1 peptide 157-170 was “no binding” throughout. In series [2], this molecule gave a Kd of 57 nM.
